Assay results: the Human Domainome abundance scans (Beltran et al. 2025)

B1: Chromodomain-helicase-DNA-binding protein 4, residues 365 to 417; numbered along this chain, Q14839 (parent)
chain: YETDHQDYCEVCQQGGEIILCDTCPRAYHMVCLDPDMEKAPEGKWSCPHCEKE

Variants of: B1
Experiment: abundance fitness (aPCA) (normalised: wild type 0, dead -1); higher = more abundant; growth selection in yeast, the domain comes from the species named
Details: Homo sapiens

Abundance fitness, by site and new letter:
D7: P -0.29, Q 0.119, R -0.005, S 0.037, T 0.067, V -0.19, W -0.346, Y -0.003
Y8: A -0.052, C -0.222, D -0.269, E -0.109, F 0.471, G -0.291, H 0.481, I -0.099, L 0.031, M 0.011, N -0.13, P 0.033, Q 0.427, R 0.155, T 0.221, V -0.124, W -0.107
C9: A -0.929, D -0.777, E -0.943, F -1.09, G -0.825, H -0.739, I -0.868, L -0.717, M -0.562, P -0.712, Q -0.845, R -0.678, S -0.676, T -0.791, V -1.01, Y -1.02
E10: A -0.155, C -0.26, F -0.015, H -0.383, I 0.204, K -0.063, L 0, N -0.182, P -0.157, Q -0.358, R -0.022, S 0.035, T -0.093, V -0.197, W 0.015, Y 0.133
V11: A -0.098, C 0.063, F 0.262, G 0.129, H 0.155, I -0.064, K 0.127, L 0.134, M 0.223, N 0.223, P -0.257, Q -0.268, S -0.085, T 0.195, W -0.019, Y 0.008
C12: A -0.952, D -0.944, E -0.683, F -0.529, G -0.799, H -0.948, I -0.342, K -0.775, L -0.962, M -0.643, N -0.605, Q -0.49, R -0.87, S -0.977, T -0.46, V -0.887, W -0.948, Y -1.07
Q13: A 0.206, C -0.045, D 0.12, E -0.036, F -0.063, G 0.037, H -0.135, I -0.208, K -0.474, L -0.091, M 0.156, N 0.255, P -0.702, S 0.008, T -0.015, V -0.018, W -0.255, Y -0.117
Q14: A -0.307, C -0.337, E 0.223, F 0.06, G -0.013, H -0.23, I -0.084, K 0.002, L -0.347, N -0.362, P -0.826, R 0.162, S -0.239, W -0.342, Y -0.338
G15: A -0.028, C -0.524, D 0.176, E -0.162, F -0.178, I -0.664, K -0.033, L -0.052, M -0.028, N -0.328, P -0.136, Q -0.046, R 0.075, S -0.013, T -0.003, W -0.216, Y -0.571
G16: A -0.114, C -0.32, D 0.29, E 0.12, F -0.469, H -0.12, I -0.08, K 0.026, L -0.016, M -0.095, N 0.144, P -0.347, Q 0.036, R 0.009, S 0.069, T 0.242, V -0.341, Y -0.262
E17: A -0.149, C -0.308, D -0.109, F -0.222, G -0.171, H -0.11, I -0.199, K -0.153, L -0.322, M -0.149, N 0.115, Q -0.135, R -0.115, S -0.033, T -0.033, V -0.076, W -0.412, Y -0.055
I18: A -0.123, C -0.216, D -0.058, E 0.046, F 0.158, G -0.042, H -0.408, K -0.305, M 0.022, P -0.369, Q -0.14, R -0.06, S -0.081, T 0.221, V -0.161, W -0.218, Y -0.231
I19: A 0.085, C -0.25, D -0.154, E -0.07, F -0.404, G -0.137, K 0.127, L -0.145, M 0.277, N -0.097, P -0.849, Q -0.124, R 0.022, S -0.143, T -0.101, W -0.199, Y -0.629
L20: A 0.08, C -0.045, D 0.178, E 0.01, F -0.096, H 0.143, I 0.023, M -0.011, N -0.083, P 0.149, Q -0.022, R 0.113, S -0.013, T 0.036, V -0.028, W -0.146, Y -0.179
C21: A -0.882, D -0.657, E -0.893, F -1.11, I -0.802, K -0.734, L -1.06, M -0.911, N -0.983, P -1.11, Q -0.468, R -0.743, S -0.889, T -0.467, V -0.877, W -0.738, Y -0.765
D22: A 0.056, F -0.129, G -0.021, H -0.528, I 0.03, L -0.34, N -0.101, P -0.721, Q 0.083, S -0.272, T 0.089, V -0.065, W -0.219, Y -0.42
T23: A -0.459, C -0.257, D -0.052, F -0.099, G -0.189, H 0.312, I -0.236, K -0.219, L -0.107, M -0.297, N -0.201, P -0.922, Q -0.107, R -0.363, S 0.033, V -0.231, W -0.327, Y -0.296
C24: A -1.1, D -0.647, E -0.822, F -0.882, G -0.695, I -1.18, L -1.19, M -0.751, N -0.401, P -0.652, Q -1.15, R -0.775, S -0.681, T -0.768, V -0.99, W -0.901, Y -1.31
P25: A -0.243, C 0.034, D -0.276, E 0.198, F 0.079, G -0.044, H -0.485, I -0.057, K -0.274, L -0.044, M -0.194, N 0.185, Q -0.058, R -0.054, S 0.068, T -0.192, V -0.241, W -0.27, Y -0.135
R26: A -0.137, C -0.462, D -0.249, E -0.356, F -0.288, G -0.112, H -0.273, I -0.014, K -0.065, L -0.231, M 0.183, P -0.348, S -0.134, T -0.191, V -0.226, W -0.791, Y -0.413
A27: C -0.02, D -0.545, E -0.672, F -0.172
